We go through 20 molecules from patent US20230357395A1 (MARENGO THERAPEUTICS, published 2023).

Experiment [1] concerns the target T1, Human NKp30, construct BKM0179 (human, UniProt O14931 19-135, limits assumed).
T1 construct: Immobilized on a CM5 chip via anti-mouse Fc antibody, so it likely carries a mouse Fc; also called Human Nkp30 (BKM0179)
T1 sequence (looked up): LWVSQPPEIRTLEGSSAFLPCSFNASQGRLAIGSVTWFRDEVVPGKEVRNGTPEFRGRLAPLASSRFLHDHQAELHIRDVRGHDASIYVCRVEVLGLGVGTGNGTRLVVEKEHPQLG
The experiment in a line: SPR (BIAcore T200), human NKp30 BKM0179 captured via anti-mouse Fc on CM5, antibody injected 3.9-125 nM, 1:1 fit. Here is the method: In this example, a series of exemplary anti-NKp30 antibody molecules were analyzed for their binding affinity for NKp30. Briefly, surface plasmon resonance (SPR) measurements were performed by using the BIAcore T200. Human NKp30 (BKM0179) was immobilized on a CM5 chip via anti-mouse Fc antibody to a response of 50 RU. […] The data was fit using a 1:1 binding model.
(SPR reads the build-up and loss of mass on a sensor chip optically.)

The target of experiment [2] is T2, human TRBC1 (hTRBC1), construct BIM0443 (human, UniProt P01850 1-129, limits assumed).
T2 construct: also called Human TRBC1 (BIM0443); BIM0443 (hTRBC1)
T2 sequence (P01850 1-129 limits assumed): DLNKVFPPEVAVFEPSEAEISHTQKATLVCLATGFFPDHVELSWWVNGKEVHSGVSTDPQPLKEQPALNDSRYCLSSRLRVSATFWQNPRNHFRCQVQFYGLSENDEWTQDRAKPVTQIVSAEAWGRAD
Kind of experiment: SPR (BIAcore T200), antibody captured via anti-human Fc on CM5, hTRBC1 BIM0443 injected 15.6-500 nM, 1:1 fit. On the procedure:
In this example, a series of exemplary anti-TRBC1 antibody molecules were analyzed for their binding affinity for TRBC1. Briefly, surface plasmon resonance (SPR) measurements were performed by using the BIAcore T200. Each of the exemplary anti-TRBC1 antibody constructs was immobilized on a CM5 chip via anti-human Fc antibody to a response of 50 RU. […] The data was fit using a 1:1 binding model.

In experiment [3] the target is T3, human TRBC2 (hTRBC2), construct BIM0445 (human, UniProt A0A5B9 1-129, limits assumed).
T3 construct: also called BIM0445 (hTRBC2)
T3 sequence (A0A5B9 1-129 limits assumed): as the sequence (P01850 1-129 limits assumed) above, with N3K, K4N, E9K, F36Y counted along it
The experiment in a line: SPR (BIAcore T200), antibody captured via anti-human Fc.

Experiment [4] concerns the target T4, human TRBC2 (construct not named) (human, UniProt A0A5B9 1-129, limits assumed).
T4 construct: also called hTRBC2
Kind of experiment: SPR, bispecific captured via anti-human Fc on CM5, hTRBC2 from 125 nM in two-fold dilutions, 1:1 fit. On the procedure:
In this example, surface plasmon resonance assay was performed to check binding of anti-TRBC2xNKp30 bispecific antibodies (bispecifics) to either hTRBC2, hTRBC1 or hNKp30 proteins. […] The bispecific antibodies may or may not have an N297A mutation in their Fc regions. FIG. 31B represents a design for monovalent TRBC2 control. Briefly, TRBC2xNKp30 bispecifics at 2 ug/mL were immobilized on CM5 chip via anti-human Fc antibody to 70 RU. Human TRBC2 or human TRBC1 antigens were diluted to 125 nM and then serially diluted two-fold. Association was 300 seconds and dissociation were 600 seconds. This assay was run in 1 x HBS-EP+ Buffer pH 7.4 and 25 C. The data was fit using a 1:1 binding model assess binding of bispecifics to NKp30, human NKp30 at 2 ug/mL was immobilized on CM5 chip via Anti-mouse Fc antibody to 70 RU. TRBC2xNKp30 bispecifics were diluted to 50 nM and then serially diluted two-fold. Association was 300 seconds and dissociation were 600 seconds. This assay was run in 1 x HBS-EP+ Buffer pH 7.4 and 25 C. The data was fit using a 1:1 binding model.

Changes are numbered by the printed parent chain. Numbers in names are those of the source.

T4 sequence (A0A5B9 1-129 limits assumed): as the sequence (P01850 1-129 limits assumed) above, with N3K, K4N, E9K, F36Y counted along it

B1: BKM0138 (scFv)
scFv: EIQLLESGGGLVQPGGSLRLSCAVSGFSITTTGYHWNWVRQAPGKGLEWVGYIYSSGSTSYNPSLKSRFTISRDTSKNTFYLQMNSLRAEDTAVYYCARGDWHYFDYWGQGTMVTVSSGGGGSGGGGSGGGGSGGGGSDSVTTQSPLSLPVTLGQPASISCSGEKLSDKYVHWYQQRPGQSPRMLIYENDRRPSGVPDRFSGSNSGNDATLKISRVEAEDVGVYFCQFWDSTASAVFGGGTKVEIK
notes: also called BJM0411 VL-N95A
Molecule B1 returned a Kd in experiment [1] of 3.2 nM.

B2: BKM0142 (scFv)
scFv: B1 scFv with N62A, A233N
notes: also called BJM0411 VH-N60A
In turn, B2 returned a Kd in experiment [1] of 1.28 nM. This Kd lies about 2.5-fold lower than the previous one.

B3: BKM0144 (scFv)
scFv: B1 scFv with N62A, D230A
notes: also called BJM0411 VH-N60A-VL-D92A-N95A
In the case of B3, in experiment [1], the affinity, expressed as Kd, was 6.4 nM.

B4: BKM0139 (scFv)
scFv: B1 scFv with D230A, A233N
notes: also called BJM0411 VL-D92A
In turn, B4 returned a Kd in experiment [1] of 3.2 nM.

B5: BJM0578 (bivalent) (antibody, V domains shown)
VH: QVQLVQSGAEVKKPGSSVKVSCKASGYTFTGYVMHWVRQAPGQGLEWMGFIIPIFGTANYAQKFQGRVTITSDKSTTTAYMELSSLRSEDTAVYYCARGAGYNFDGAYRFFDFWGQGTLVTVSS
VL: DVVMTQSPLSLPVTLGQPASISCRSSQRLVHSNGNTYLHWYQQRPGQSPRLLIYRVSNRFPGVPDRFSGSGSGTDFTLKISRVEAEDVGVYFCSQSTHVPYTFGGGTKVEIK
notes: Bivalent construct with a human Fc
In experiment [2], B5 returned a Kd of 75 nM. For the same molecule, the binding result in experiment [3] was “no binding”.

B6: BKM0192 (single arm) (antibody, V domains shown)
VH: B5 VH
VL: B5 VL with T36A
notes: Single arm anti-TRBC1 construct with human Fc; also called T31A
For the molecule B6, the Kd in experiment [2] is 138 nM. In experiment [3], the binding result is listed as “no binding”.

B7: BKM0191 (single arm) (antibody, V domains shown)
VH: B5 VH
VL: B5 VL with G34A
notes: Single arm anti-TRBC1 construct with human Fc; also called G29A
In the case of B7, binding in experiment [2] was characterised by a dissociation constant (Kd) of 75 nM. Also, the binding result in experiment [3] is given as “no binding”.

B8: BKM0193 (single arm) (antibody, V domains shown)
VH: B5 VH
VL: B5 VL with G34A, T36A
notes: Single arm anti-TRBC1 construct with human Fc; also called G29A T31A
Consider B8, for which the Kd in experiment [2] was determined as 360 nM. The binding result in experiment [3] is recorded as “no binding”.

B9: BKM0195 (single arm) (antibody, V domains shown)
VH: B5 VH
VL: B5 VL with N35S
notes: Single arm anti-TRBC1 construct with human Fc; also called N30S
The molecule B9 came in with a Kd in experiment [2] of 317 nM. Also, the binding result in experiment [3] was “no binding”.

B10: BKM0194 (single arm) (antibody, V domains shown)
VH: B5 VH
VL: B5 VL with N33G
notes: Single arm anti-TRBC1 construct with human Fc; also called N28G
In turn, B10 registered a Kd in experiment [2] of 180 nM. The binding result in experiment [3] was “no binding”.

B11: BKM0196 (single arm) (antibody, V domains shown)
VH: B5 VH
VL: B5 VL with N33G, N35S
notes: Single arm anti-TRBC1 construct with human Fc; also called N28G N30S
In the case of B11, in experiment [2], the Kd stood at 690 nM. Moreover, the binding result in experiment [3] is given as “no binding”.

B12: BIM0460 (bivalent) (antibody, V domains shown)
VH: QVQLVQSGAEVKKPGSSVKVSCKASGYTFTGYVMHWVRQAPGQGLEWMGFINPYNDDIQSNERFRGRVTITSDKSTTTAYMELSSLRSEDTAVYYCARGAGYNFDGAYRFFDFWGQGTLVTVSS
VL: B5 VL
notes: Bivalent construct with a human Fc (captured via anti-human Fc antibody)
B12 returned a Kd in experiment [2] of 10 nM. The binding result in experiment [3] is given as “no binding”.

B13: BJM1078 (BJM0407 Parental) (antibody, V domains shown)
VH: EIQLLESGGGLVQPGGSLRLSCAVSGFSITTTGYHWNWVRQAPGKGLEWVGYIYSSGSTSYNPSLKSRFTISRDTSKNTFYLQMNSLRAEDTAVYYCARGDWHYFDYWGQGTMVTVSS
VL: SSETTQPPSVSVSPGQTASITCSGEKLSDKYVHWYQQKPGQSPVMVIYENDRRPSGIPERFSGSNSGNTATLTISGTQAMDEADYFCQFWDSTNSAVFGGGTQLTVL
With B13, in experiment [1], binding was characterised by a dissociation constant (Kd) of 1.48 nM. In other words, the single-digit nanomolar range.

B14: BJM1079 (BJM0411 Parental) (antibody, V domains shown)
VH: B13 VH
VL: DSVTTQSPLSLPVTLGQPASISCSGEKLSDKYVHWYQQRPGQSPRMLIYENDRRPSGVPDRFSGSNSGNDATLKISRVEAEDVGVYFCQFWDSTNSAVFGGGTKVEIK
B14 had a Kd in experiment [1] of 1.26 nM.

B15: BKM0313 (TRBC2/NKp30 bispecific) (bispecific antibody, human IgG1, kappa, N297A)
heavy: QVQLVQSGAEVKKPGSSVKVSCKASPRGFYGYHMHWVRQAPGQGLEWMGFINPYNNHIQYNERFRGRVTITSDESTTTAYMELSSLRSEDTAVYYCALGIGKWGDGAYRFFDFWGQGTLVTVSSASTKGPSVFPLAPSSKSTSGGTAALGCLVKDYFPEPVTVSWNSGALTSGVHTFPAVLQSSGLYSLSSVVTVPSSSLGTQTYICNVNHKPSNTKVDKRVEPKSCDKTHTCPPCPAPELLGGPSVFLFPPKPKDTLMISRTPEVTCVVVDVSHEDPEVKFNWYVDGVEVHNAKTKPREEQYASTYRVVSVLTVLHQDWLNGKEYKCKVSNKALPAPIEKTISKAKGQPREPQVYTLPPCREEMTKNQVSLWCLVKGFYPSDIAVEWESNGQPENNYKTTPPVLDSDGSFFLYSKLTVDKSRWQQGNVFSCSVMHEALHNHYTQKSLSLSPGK
light: DVVMTQSPLSLPVTLGQPASISCRSSKNLVHSNGRTYLQWYQQRPGQSPRLLIYRVSNRFPGVPDRFSGSGSGTDFTLKISRVEAEDVGVYFCSQSTREPYTFGGGTKVEIKRTVAAPSVFIFPPSDEQLKSGTASVVCLLNNFYPREAKVQWKVDNALQSGNSQESVTEQDSKDSTYSLSSTLTLSKADYEKHKVYACEVTHQGLSSPVTKSFNRGEC
scFv: EIQLLESGGGLVQPGGSLRLSCAVSGFSITTTGYHWNWVRQAPGKGLEWVGYIYSSGSTSYNPSLKSRFTISRDTSKNTFYLQMNSLRAEDTAVYYCARGDWHYFDYWGQGTMVTVSSGGGGSGGGGSGGGGSGGGGSDSVTTQSPLSLPVTLGQPASISCSGEKLSDKYVHWYQQRPGQSPRMLIYENDRRPSGVPDRFSGSNSGNDATLKISRVEAEDVGVYFCQFWDSTNSAVFGGGTKVEIKDKTHTCPPCPAPELLGGPSVFLFPPKPKDTLMISRTPEVTCVVVDVSHEDPEVKFNWYVDGVEVHNAKTKPREEQYASTYRVVSVLTVLHQDWLNGKEYKCKVSNKALPAPIEKTISKAKGQPREPQVCTLPPSREEMTKNQVSLSCAVKGFYPSDIAVEWESNGQPENNYKTTPPVLDSDGSFFLVSKLTVDKSRWQQGNVFSCSVMHEALHNHYTQKSLSLSPGK
notes: Knob chain TRBC2 Fab-Fc and hole chain NKp30 scFv-Fc; also called Anti-TRBC2-NKp30-BIS-9
Turning to B15, the affinity in experiment [4], expressed as Kd, was 148 nM.

B16: BKM0314 (TRBC2/NKp30 bispecific) (bispecific antibody, human IgG1, kappa, N297A)
heavy: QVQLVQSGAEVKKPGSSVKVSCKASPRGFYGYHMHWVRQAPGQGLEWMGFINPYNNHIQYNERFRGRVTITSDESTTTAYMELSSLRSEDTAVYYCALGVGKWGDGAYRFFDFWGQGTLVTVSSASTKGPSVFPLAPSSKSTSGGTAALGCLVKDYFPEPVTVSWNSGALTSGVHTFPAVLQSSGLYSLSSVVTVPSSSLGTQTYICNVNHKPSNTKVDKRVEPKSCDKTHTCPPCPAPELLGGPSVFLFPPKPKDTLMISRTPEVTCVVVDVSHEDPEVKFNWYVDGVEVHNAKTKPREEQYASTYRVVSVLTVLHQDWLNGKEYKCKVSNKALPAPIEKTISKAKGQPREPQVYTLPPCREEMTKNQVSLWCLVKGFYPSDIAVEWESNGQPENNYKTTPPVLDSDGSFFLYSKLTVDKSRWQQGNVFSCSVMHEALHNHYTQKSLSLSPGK
light: B15 light
scFv: B15 scFv
notes: Knob chain TRBC2 Fab-Fc and hole chain NKp30 scFv-Fc; also called Anti-TRBC2-NKp30-BIS-10
In experiment [4], B16 yielded a Kd of 92 nM. This Kd is about 1.6-fold lower than that of the molecule before.

B17: BKM0140 (scFv)
scFv: EIQLLESGGGLVQPGGSLRLSCAVSGFSITTTGYHWNWVRQAPGKGLEWVGYIYSSGSTSYNPSLKSRFTISRDTSKNTFYLQMNSLRAEDTAVYYCARGDWHYFDYWGQGTMVTVSSGGGGSGGGGSGGGGSGGGGSSSETTQPPSVSVSPGQTASITCSGEKLSDKYVHWYQQKPGQSPVMVIYENDRRPSGIPERFSGSNSGNTATLTISGTQAMDEADYFCQFWASTNSAVFGGGTQLTVL
notes: also called BJM0407 VL-D92A
Take B17: the Kd in experiment [1] turned out to be 3.3 nM. That is a single-digit nanomolar value.

B18: BKM0145 (scFv)
scFv: B17 scFv with N62A, N232A
notes: also called BJM0407 VH-N60A-VL-D92A-N95A
For the molecule B18, the Kd in experiment [1] was 4.2 nM.

B19: BKM0141 (scFv)
scFv: B17 scFv with A229D, N232A
notes: also called BJM0407 VL-N95A
In turn, B19 registered a Kd in experiment [1] of 3 nM. The Kd values of the last two molecules are within 1.5-fold of each other.

B20: BKM0143 (scFv)
scFv: B17 scFv with N62A, A229D
notes: also called BJM0407 VH-N60A
Regarding B20, the Kd in experiment [1] is 1.45 nM.

As a reminder, the Kd is the free concentration of one partner at which half of the binding sites on the other are occupied at equilibrium, for simple one-to-one binding. High values mean weaker binding, low ones tighter binding.
